Source: the supplement of paper PMC7877785
± gives the uncertainty stated by the source.

Assay: self-splicing fitness, log relative to wild type (ln ratio); higher = more splicing; Tetrahymena group I intron in knt gene, E. coli kanamycin selection, DiMSum; sequences stand for … in CUCUCU…GGAGGGAAAAGUUAUCAGGCAUGCACCUGGUAGCUAGUCUUUAAACCAAUAGAUUGCAUCGGUUUAAAAGGCAAGACCGUCAAAUUGCGGGAAAGGGGUCAACAGCCGUUCAGUACCAAGUCUCAGGGGAAACUUUGAGAUGGCCUUGCAAAGGGUAUGGUAAUAAGCUGACGGACAUGGUCCUAACCACGCAGCCAAGUCCUAAGUCAACAGAUCUUCUGUUGAUAUGGAUGCAGUUCACAGACUAAAUGUCGGUCGGGGAAGAUGUAUUCUUCUCAUAAGAUAUAGUCGGACCUCUCCUUAAUGGGAGCUAGCGGAUGAAGUGAUGCAACACUGGAGCCGCUGGGAACUAAUUUGUAUGCGAAAGUAUAUUGAUUAGUUUUGGAGUACUCGUGGUCG
Method in brief: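 The eight P1ex-region nucleotides of an intron in the knt kanamycin-resistance gene on pET-22b(+) were all randomised and the library put into E. coli BL21(DE3). Six replicate transformations were grown overnight at 37°C or 30°C on LB agar with or without 25 μg/mL kanamycin, together with 100 μg/mL carbenicillin, 50 μM IPTG and 0.2% rhamnose. Colonies were pooled and amplicon-sequenced on an Illumina HiSeq 2500. Fitness from DiMSum is the error-weighted combination of wild-type-normalised replicate fold changes, kanamycin over none.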

| Sequence | self-splicing fitness (ln) (30 °C) | self-splicing fitness (ln) (37 °C) |
| --- | --- | --- |
| CAACAGCAAUAUUACGCCUC | -3.85 ± 0.29 | -1.81 ± 0.18 |
| CAACAGCAAUAUUACGCGUU | -3.77 ± 0.14 | -1.62 ± 0.08 |
| CAACAGCAAUAUUACGCUGG | -3.71 ± 0.18 | -2.01 ± 0.16 |
| CAACAGCAAUAUUACGCUUG | -2.71 ± 0.12 | -1.82 ± 0.14 |
| CAACAGCAAUAUUACGGAAA | -3.2 ± 0.17 | -2.27 ± 0.18 |
| CAACAGCAAUAUUACGGACA | -1.81 ± 0.1 | -0.798 ± 0.097 |
| CAACAGCAAUAUUACGGACG | -0.191 ± 0.063 | 0.505 ± 0.082 |
| CAACAGCAAUAUUACGGAUG | -2.53 ± 0.074 | -0.732 ± 0.068 |
| CAACAGCAAUAUUACGGGAU | -3.7 ± 0.15 | -2.08 ± 0.15 |
| CAACAGCAAUAUUACGGGUC | -4.17 ± 0.17 | -2.66 ± 0.14 |
| CAACAGCAAUAUUACGGUCU | -3.01 ± 0.11 | -2.07 ± 0.095 |
| CAACAGCAAUAUUACGGUGC | -3.12 ± 0.12 | -2.8 ± 0.16 |
| CAACAGCAAUAUUACGUAAC | -3.71 ± 0.23 | -2.41 ± 0.24 |
| CAACAGCAAUAUUACGUAAG | -0.309 ± 0.044 | 0.376 ± 0.055 |
| CAACAGCAAUAUUACGUAAU | -2.46 ± 0.08 | -2 ± 0.12 |
| CAACAGCAAUAUUACGUAUU | -3.48 ± 0.17 | -1.58 ± 0.11 |
| CAACAGCAAUAUUACGUCUC | -2.24 ± 0.074 | -0.669 ± 0.081 |
| CAACAGCAAUAUUACGUCUG | -1.89 ± 0.062 | -1.38 ± 0.063 |
| CAACAGCAAUAUUACGUGAU | -2.64 ± 0.075 | -2.19 ± 0.1 |
| CAACAGCAAUAUUACGUGGA | -3.08 ± 0.13 | -2.08 ± 0.096 |
| CAACAGCAAUAUUACGUGGC | -3.17 ± 0.12 | -2.81 ± 0.16 |

| Sequence | self-splicing fitness (ln) (30 °C) | self-splicing fitness (ln) (37 °C) |
| --- | --- | --- |
| CAACAGCAAUAUUACGUUGA | -3.22 ± 0.12 | -3.19 ± 0.15 |
| CAAGAGCAAUAUUACGAAAA | – | -2.78 ± 0.38 |
| CAAGAGCAAUAUUACGACAG | -0.511 ± 0.08 | 0.045 ± 0.11 |
| CAAGAGCAAUAUUACGAUCG | -0.79 ± 0.071 | 0.562 ± 0.1 |
| CAAGAGCAAUAUUACGCACG | -1.96 ± 0.11 | -0.942 ± 0.12 |
| CAAGAGCAAUAUUACGCAUC | -3.5 ± 0.29 | -0.397 ± 0.39 |
| CAAGAGCAAUAUUACGCCCU | -2.51 ± 0.49 | -2.72 ± 0.44 |
| CAAGAGCAAUAUUACGCGUA | -2.2 ± 0.27 | -1.95 ± 0.25 |
| CAAGAGCAAUAUUACGGAAU | -3.66 ± 0.26 | -2.42 ± 0.23 |
| CAAGAGCAAUAUUACGGACA | -3.46 ± 0.26 | -2 ± 0.32 |
| CAAGAGCAAUAUUACGGCGC | -3.56 ± 0.27 | -2.17 ± 0.26 |
| CAAGAGCAAUAUUACGGGAU | -2.97 ± 0.17 | -2.59 ± 0.31 |
| CAAGAGCAAUAUUACGGGUA | -3.26 ± 0.4 | -1.64 ± 0.28 |
| CAAGAGCAAUAUUACGGUGG | -2 ± 0.082 | -1.58 ± 0.11 |
| CAAGAGCAAUAUUACGGUUU | -3.5 ± 0.18 | -2.33 ± 0.2 |
| CAAGAGCAAUAUUACGUAGG | -1.4 ± 0.069 | -1.06 ± 0.1 |
| CAAGAGCAAUAUUACGUCUU | -3.62 ± 0.25 | -1.46 ± 0.11 |
| CAAGAGCAAUAUUACGUGUU | -3.47 ± 0.15 | -3.58 ± 0.26 |
| CAAGAGCAAUAUUACGUUUU | -3.35 ± 0.16 | -2.29 ± 0.15 |
| CAAUAGCAAUAUUACGAAAA | -2.39 ± 0.34 | – |
| CAAUAGCAAUAUUACGAAUG | -1.11 ± 0.076 | -0.357 ± 0.098 |
